Test results as given in PMC6210743, “Starch Synthesis in Ostreococcus tauri: The Starch-Binding Domains of Starch Synthase III-B Are Essential for Catalytic Activity” (Frontiers in Plant Science, 2018).

Substrate: Nc1ncnc2c1ncn2[C@@H]1O[C@H](COP(=O)(O)OP(=O)(O)O[C@H]2O[C@H](CO)[C@@H](O)[C@H](O)[C@H]2O)[C@@H](O)[C@H]1O
Experiment: Pi release by alkaline phosphatase from ADP, Malachite Green assay
Type: biochemical, Ostreococcus tauri
Settings: 2 mg/ml glycogen as acceptor, 50 mM BICINE pH 8.0, 30°C
Text: Pi release by alkaline phosphatase from ADP, Malachite Green assay on OsttaSSIII-B

B1: OsttaSSIII-B (Ostreococcus tauri) (protein)
chain: ASVETQLDGTDHPRVFTVPATPVAGGALRVFADVERADALRSASGWKLIGGYNAWRVGEFTKDMIKVKGTSWVYADVNVDERAFSMDFVFKGDGEAYEKDEGQDFSLTVDFGPTPEEFEEMLKVIEMENKARDEANAFIDGQMARARESGAGASIEKYGRVICKTASGKPGVAGSTERVMWNKAYNPIGGDTDKLVLHVGFNGWCAGVEAKFDLVRATGEIKDENNDWWVADVPLRADAYLLDFVVSDVEESAWDNNEQANFTLAVETSDEEWAVLRELKFEEIRAMAFKKELAEKERKERRAKADAEAKAKAIEVGLKQQSYIIHTEPKVPQVGKPLKVFYNKNNTNLSWSDEIYMTGGFNRWSHEAAIEPVKMTPPGAGEEFFTVTVPRVPTDAWMVDFVFSSGVGEGAQYDNKSGRDYHLPTRGSTASKPPLHVCHIAVEMAPIAKVGGLADVVTAIGRAIQDNGHLVEIILPKYQFFNNSVLLGGKEYETHFDWAGTTIRVEKCKVEGLQCFFIEPQNNMFQTDSVYGRNDDAHRFNFFCNAALEFLVRTARQPDILHCHDWSSAEVARAYWEHYHHNGLTKPKVAFTIHNMNYGQAKLGEAVHHSQVATTVSPSYAGEVRGSPVIGNNGHKFTGVRNGIDPEIWDPETDIFVPVKYNADNQEEGKAAARAELRQRAGMTGWDDKPIVGVVSRLTAQKGVHLIKHAAHHTLSRGGQFVLLGSAPDPKIQGEFNGLANQLGGEDTGFFFAFDEPLSHLMYAGCDVILVPSMFEPCGLTQMISMRYGAVPVVRATGGLRDTVFDVDNEKERAAWEVGGSTDWKTDGDMTNGFSFEGTDEGSLNYALDRCLDAFYNDREWFRSLQKRVMLQDWSWNRPANDYEELYYKMIGR
- K0.5 (nH 1.16): 0.09 ± 0.02 mM
- Vmax (nH 1.16): 1.65 µmol/min/mg

B2: OsttaSSIII-B (Ostreococcus tauri; W304A) (protein)
chain: ASVETQLDGTDHPRVFTVPATPVAGGALRVFADVERADALRSASGWKLIGGYNAWRVGEFTKDMIKVKGTSWVYADVNVDERAFSMDFVFKGDGEAYEKDEGQDFSLTVDFGPTPEEFEEMLKVIEMENKARDEANAFIDGQMARARESGAGASIEKYGRVICKTASGKPGVAGSTERVMWNKAYNPIGGDTDKLVLHVGFNGWCAGVEAKFDLVRATGEIKDENNDWWVADVPLRADAYLLDFVVSDVEESAADNNEQANFTLAVETSDEEWAVLRELKFEEIRAMAFKKELAEKERKERRAKADAEAKAKAIEVGLKQQSYIIHTEPKVPQVGKPLKVFYNKNNTNLSWSDEIYMTGGFNRWSHEAAIEPVKMTPPGAGEEFFTVTVPRVPTDAWMVDFVFSSGVGEGAQYDNKSGRDYHLPTRGSTASKPPLHVCHIAVEMAPIAKVGGLADVVTAIGRAIQDNGHLVEIILPKYQFFNNSVLLGGKEYETHFDWAGTTIRVEKCKVEGLQCFFIEPQNNMFQTDSVYGRNDDAHRFNFFCNAALEFLVRTARQPDILHCHDWSSAEVARAYWEHYHHNGLTKPKVAFTIHNMNYGQAKLGEAVHHSQVATTVSPSYAGEVRGSPVIGNNGHKFTGVRNGIDPEIWDPETDIFVPVKYNADNQEEGKAAARAELRQRAGMTGWDDKPIVGVVSRLTAQKGVHLIKHAAHHTLSRGGQFVLLGSAPDPKIQGEFNGLANQLGGEDTGFFFAFDEPLSHLMYAGCDVILVPSMFEPCGLTQMISMRYGAVPVVRATGGLRDTVFDVDNEKERAAWEVGGSTDWKTDGDMTNGFSFEGTDEGSLNYALDRCLDAFYNDREWFRSLQKRVMLQDWSWNRPANDYEELYYKMIGR
- K0.5 (nH 0.80): 0.15 ± 0.03 mM
- Vmax (nH 0.80): 0.31 µmol/min/mg

B3: OsttaSSIII-B (Ostreococcus tauri; F138A) (protein)
chain: ASVETQLDGTDHPRVFTVPATPVAGGALRVFADVERADALRSASGWKLIGGYNAWRVGEFTKDMIKVKGTSWVYADVNVDERAFSMDAVFKGDGEAYEKDEGQDFSLTVDFGPTPEEFEEMLKVIEMENKARDEANAFIDGQMARARESGAGASIEKYGRVICKTASGKPGVAGSTERVMWNKAYNPIGGDTDKLVLHVGFNGWCAGVEAKFDLVRATGEIKDENNDWWVADVPLRADAYLLDFVVSDVEESAWDNNEQANFTLAVETSDEEWAVLRELKFEEIRAMAFKKELAEKERKERRAKADAEAKAKAIEVGLKQQSYIIHTEPKVPQVGKPLKVFYNKNNTNLSWSDEIYMTGGFNRWSHEAAIEPVKMTPPGAGEEFFTVTVPRVPTDAWMVDFVFSSGVGEGAQYDNKSGRDYHLPTRGSTASKPPLHVCHIAVEMAPIAKVGGLADVVTAIGRAIQDNGHLVEIILPKYQFFNNSVLLGGKEYETHFDWAGTTIRVEKCKVEGLQCFFIEPQNNMFQTDSVYGRNDDAHRFNFFCNAALEFLVRTARQPDILHCHDWSSAEVARAYWEHYHHNGLTKPKVAFTIHNMNYGQAKLGEAVHHSQVATTVSPSYAGEVRGSPVIGNNGHKFTGVRNGIDPEIWDPETDIFVPVKYNADNQEEGKAAARAELRQRAGMTGWDDKPIVGVVSRLTAQKGVHLIKHAAHHTLSRGGQFVLLGSAPDPKIQGEFNGLANQLGGEDTGFFFAFDEPLSHLMYAGCDVILVPSMFEPCGLTQMISMRYGAVPVVRATGGLRDTVFDVDNEKERAAWEVGGSTDWKTDGDMTNGFSFEGTDEGSLNYALDRCLDAFYNDREWFRSLQKRVMLQDWSWNRPANDYEELYYKMIGR
- K0.5 (nH 1.06): 0.07 ± 0.02 mM
- Vmax (nH 1.06): 0.23 µmol/min/mg

B4: OsttaSSIII-B (Ostreococcus tauri; Y147A) (protein)
chain: ASVETQLDGTDHPRVFTVPATPVAGGALRVFADVERADALRSASGWKLIGGYNAWRVGEFTKDMIKVKGTSWVYADVNVDERAFSMDFVFKGDGEAAEKDEGQDFSLTVDFGPTPEEFEEMLKVIEMENKARDEANAFIDGQMARARESGAGASIEKYGRVICKTASGKPGVAGSTERVMWNKAYNPIGGDTDKLVLHVGFNGWCAGVEAKFDLVRATGEIKDENNDWWVADVPLRADAYLLDFVVSDVEESAWDNNEQANFTLAVETSDEEWAVLRELKFEEIRAMAFKKELAEKERKERRAKADAEAKAKAIEVGLKQQSYIIHTEPKVPQVGKPLKVFYNKNNTNLSWSDEIYMTGGFNRWSHEAAIEPVKMTPPGAGEEFFTVTVPRVPTDAWMVDFVFSSGVGEGAQYDNKSGRDYHLPTRGSTASKPPLHVCHIAVEMAPIAKVGGLADVVTAIGRAIQDNGHLVEIILPKYQFFNNSVLLGGKEYETHFDWAGTTIRVEKCKVEGLQCFFIEPQNNMFQTDSVYGRNDDAHRFNFFCNAALEFLVRTARQPDILHCHDWSSAEVARAYWEHYHHNGLTKPKVAFTIHNMNYGQAKLGEAVHHSQVATTVSPSYAGEVRGSPVIGNNGHKFTGVRNGIDPEIWDPETDIFVPVKYNADNQEEGKAAARAELRQRAGMTGWDDKPIVGVVSRLTAQKGVHLIKHAAHHTLSRGGQFVLLGSAPDPKIQGEFNGLANQLGGEDTGFFFAFDEPLSHLMYAGCDVILVPSMFEPCGLTQMISMRYGAVPVVRATGGLRDTVFDVDNEKERAAWEVGGSTDWKTDGDMTNGFSFEGTDEGSLNYALDRCLDAFYNDREWFRSLQKRVMLQDWSWNRPANDYEELYYKMIGR
- K0.5 (nH 0.78): 0.07 ± 0.01 mM
- Vmax (nH 0.78): 1.1 µmol/min/mg

B5: OsttaSSIII-B (Ostreococcus tauri; W122A/Y124A) (protein)
chain: ASVETQLDGTDHPRVFTVPATPVAGGALRVFADVERADALRSASGWKLIGGYNAWRVGEFTKDMIKVKGTSAVAADVNVDERAFSMDFVFKGDGEAYEKDEGQDFSLTVDFGPTPEEFEEMLKVIEMENKARDEANAFIDGQMARARESGAGASIEKYGRVICKTASGKPGVAGSTERVMWNKAYNPIGGDTDKLVLHVGFNGWCAGVEAKFDLVRATGEIKDENNDWWVADVPLRADAYLLDFVVSDVEESAWDNNEQANFTLAVETSDEEWAVLRELKFEEIRAMAFKKELAEKERKERRAKADAEAKAKAIEVGLKQQSYIIHTEPKVPQVGKPLKVFYNKNNTNLSWSDEIYMTGGFNRWSHEAAIEPVKMTPPGAGEEFFTVTVPRVPTDAWMVDFVFSSGVGEGAQYDNKSGRDYHLPTRGSTASKPPLHVCHIAVEMAPIAKVGGLADVVTAIGRAIQDNGHLVEIILPKYQFFNNSVLLGGKEYETHFDWAGTTIRVEKCKVEGLQCFFIEPQNNMFQTDSVYGRNDDAHRFNFFCNAALEFLVRTARQPDILHCHDWSSAEVARAYWEHYHHNGLTKPKVAFTIHNMNYGQAKLGEAVHHSQVATTVSPSYAGEVRGSPVIGNNGHKFTGVRNGIDPEIWDPETDIFVPVKYNADNQEEGKAAARAELRQRAGMTGWDDKPIVGVVSRLTAQKGVHLIKHAAHHTLSRGGQFVLLGSAPDPKIQGEFNGLANQLGGEDTGFFFAFDEPLSHLMYAGCDVILVPSMFEPCGLTQMISMRYGAVPVVRATGGLRDTVFDVDNEKERAAWEVGGSTDWKTDGDMTNGFSFEGTDEGSLNYALDRCLDAFYNDREWFRSLQKRVMLQDWSWNRPANDYEELYYKMIGR
- K0.5 (nH 0.94): 0.11 ± 0.01 mM
- Vmax (nH 0.94): 0.57 µmol/min/mg

B6: OsttaSSIII-B (Ostreococcus tauri; W279A) (protein)
chain: ASVETQLDGTDHPRVFTVPATPVAGGALRVFADVERADALRSASGWKLIGGYNAWRVGEFTKDMIKVKGTSWVYADVNVDERAFSMDFVFKGDGEAYEKDEGQDFSLTVDFGPTPEEFEEMLKVIEMENKARDEANAFIDGQMARARESGAGASIEKYGRVICKTASGKPGVAGSTERVMWNKAYNPIGGDTDKLVLHVGFNGWCAGVEAKFDLVRATGEIKDENNDWAVADVPLRADAYLLDFVVSDVEESAWDNNEQANFTLAVETSDEEWAVLRELKFEEIRAMAFKKELAEKERKERRAKADAEAKAKAIEVGLKQQSYIIHTEPKVPQVGKPLKVFYNKNNTNLSWSDEIYMTGGFNRWSHEAAIEPVKMTPPGAGEEFFTVTVPRVPTDAWMVDFVFSSGVGEGAQYDNKSGRDYHLPTRGSTASKPPLHVCHIAVEMAPIAKVGGLADVVTAIGRAIQDNGHLVEIILPKYQFFNNSVLLGGKEYETHFDWAGTTIRVEKCKVEGLQCFFIEPQNNMFQTDSVYGRNDDAHRFNFFCNAALEFLVRTARQPDILHCHDWSSAEVARAYWEHYHHNGLTKPKVAFTIHNMNYGQAKLGEAVHHSQVATTVSPSYAGEVRGSPVIGNNGHKFTGVRNGIDPEIWDPETDIFVPVKYNADNQEEGKAAARAELRQRAGMTGWDDKPIVGVVSRLTAQKGVHLIKHAAHHTLSRGGQFVLLGSAPDPKIQGEFNGLANQLGGEDTGFFFAFDEPLSHLMYAGCDVILVPSMFEPCGLTQMISMRYGAVPVVRATGGLRDTVFDVDNEKERAAWEVGGSTDWKTDGDMTNGFSFEGTDEGSLNYALDRCLDAFYNDREWFRSLQKRVMLQDWSWNRPANDYEELYYKMIGR
- K0.5 (nH 0.88): 0.38 ± 0.11 mM
- Vmax (nH 0.88): 0.42 µmol/min/mg
